The series relates to pneumovirus of mice (PVM). Description: Pneumovirus (PVM) infection of neonatal mice with IL-22 administration. It counts as in vivo, C57BL/6 mice. Here is the method:
Total RNA was extracted from animal tissues by homogenizing in TRIzol and separated via chloroform phase separation. RNA was purified using High Pure RNA isolation kit (ROCHE) as per the manufacturer's instructions, including DNASE treatment. Extraction purity was assessed by NANODROP, ensuring the expected A260/280 value for RNA between 1.8 and 2.0. Reverse transcription was performed on 1 μg of RNA using 5×ISCRIPT reaction mix and ISCRIPT reverse transcriptase (BIORAD). Quantitative, reverse transcription polymerase chain reaction (qRT-PCR) was performed to quantify expression of PVM gene Src homology (SH), using specific exon-spanning primer sequences and amplified with SYBR Premix Ex TAQ II polymerase (TAKARA). All gene expression was quantified in duplicate using a Viia 7 Real Time PCR System (APPLIED BIOSYSTEMS) and relative fold changes were calculated using the 2^−ΔΔCt method, comparing to the mean of naïve uninfected mice after normalizing to the β-actin housekeeping gene ACTB.
Five-day old neonatal C57BL/6 mice were administered intraperitoneal (i.p.) injections of either recombinant mouse IL-22 (rmIL-22) (20 ng/g every three days) [R&D Systems, #582-ML/CF], or an irrelevant IgG1 mock treatment control (12.5 μg/mouse, weekly) [Lilly Pharmaceuticals, LSN2404993]. […]
Paraffin embedded left lobes were sectioned onto Superfrost plus slides. […] This scoring system assessed inflammation in the small airspaces, peribronchiolar interstitial, alveolar interstitial and injury in the airway epithelium. The degree of lung injury and inflammation was scored blindly.
Cells infected by PVM were visualized by immunohistochemistry using rabbit anti-mouse PVM antibody (polyclonal at 1:8000) (ALPHA DIAGNOSTIC, PVMNP14-S). […] PVM infection was quantified by counting number of infected cells in 4-5 bronchioles per mouse and expressed as the number of infected cells per length of bronchiole epithelium. All sections were visualized on a VS120-L100 slide scanner microscope (OLYMPUS) and analyzed using OlyVIA v2.4 (OLYMPUS) and IMAGEJ v1.45s.

As for “IL-22: interleukin-22; recombinant murine IL-22 (R&D SYSTEMS) in the mouse experiments”, the “mice that died between days 5 and 6 post infection” value (20 ng/g i.p. every three days, 100 PFU PVM) is 7/9. Besides, where the note is “5 days post infection”, the “increase of PVM gene expression (PCR)” value was determined as 2.2 fold and the “lung injury score, times higher” value stood at 1.7 times.

These data come from patent publication US10695406B2, “Modulation of cellular stress using a B-cell oxidative and/or endoplasmic reticulum stress inhibitor and a targeting agent” (THE UNIVERSITY OF QUEENSLAND, priority 2014, dated 2020).
